Reference: PMC5018218

Legend:
Experiment in all cases: EMSA
DmcElp3 9-459 = DmcElp3 9-459 (Dehalococcoides mccartyi, UniProt A0A1C7D1B7 9-459)
[1] = molecular target: DmcElp3 wild type (dimer) (Dehalococcoides mccartyi, UniProt A0A1C7D1B7 1-459)
DmcElp3 R6A = DmcElp3 R6A (Dehalococcoides mccartyi, UniProt A0A1C7D1B7 1-459, R6A)
DmcElp3 K2A K3A = DmcElp3 K2A K3A (Dehalococcoides mccartyi, UniProt A0A1C7D1B7 1-459, K2A;K3A)
[2] = molecular target: DmcElp3 wild type (monomer) (Dehalococcoides mccartyi, UniProt A0A1C7D1B7 1-459)

B1: D. mccartyi tRNAGlu-1 (UUC) (structured_RNA)
RNA: GCCCCCAUCGUCUAGAGGCCCAGGACAGCGGCCUUUCACGCCGUCAACAGGGGUUCGAAUCCCCUUGGGGGUACCA
binding result (DmcElp3 9-459): no binding
Kd [1]: ~4 µM
binding result (DmcElp3 R6A): no binding
binding result (DmcElp3 K2A K3A): no binding
Kd [2]: ~4 µM
